Legend:
[1] = test system: Hep-G2 cells; experiment: MTS cell proliferation assay
Description: (§1) To determine whether or not alterations in PDZD2 and sPDZD2 levels in inhibitor-treated cells are associated with any changes in the cell growth rate, we also monitored DU145, PC-3, 22Rv1, MCF-7 and Hep-G2 cell proliferation by MTS-based assays. Cell proliferation was measured by a tetrazolium-based Cell Titer 96® AQucous assay kit (Promega). Absorbance at 490 nm was recorded 3 hours after MTS addition.
(§2) Cell proliferation was measured by a tetrazolium-based Cell Titer 96® AQucous assay kit (Promega). Absorbance at 490 nm was recorded 3 hours after MTS addition. […] The number of viable cells was counted using hemocytometers. Any apoptotic effect on cancer cells induced by sPDZD2 was measured by the Cell Death Detection ELISA^PLUS assay kit (Roche), which detects the presence of mono- and oligonucleosomes in the cytoplasm of the cells after lysis. Briefly, the cancer cells (1×10^5/ml) were seeded in 24-well plates and treated with 10^−8 M and 10^−7 M sPDZD2 for 24 hours. After treatment, cells were harvested and any apoptosis was detected according to manufacturer's instructions.

[2] = test system: LNCaP cells; experiment: Cell Death Detection ELISA PLUS apoptosis assay; format: cell-based, human
Description: Data are shown as mean±S.E. Two group comparisons were analyzed by unpaired Student's t test. The level of significance for all statistical analyses was set at P<0.05. *** P<0.001 compared to control.

[3] = test system: PC-3 cells; experiment: MTS cell proliferation assay
Description: as §1, §2

[4] = test system: PC-3 cells; experiment: Trypan blue dye exclusion cell viability assay; format: cell-based, human; conditions: for viability of the cells: mean ± S.E.
[5] = test system: DU145 cells; experiment: MTS cell proliferation assay
Description: as §1, §2

[6] = test system: LNCaP cells; experiment: Trypan blue dye exclusion cell viability assay; format: cell-based, human
Description: The effects of sPDZD2 on cell viability were monitored by trypan blue dye exclusion assays. Data are shown as mean±S.E. Two group comparisons were analyzed by unpaired Student's t test. The level of significance for all statistical analyses was set at P<0.05. P<0.001 compared to control.

[7] = test system: 22Rv1 cells; experiment: Trypan blue dye exclusion cell viability assay; format: cell-based, human; conditions: for viability of the cells: mean ± S.E.
[8] = test system: DU 145 cells; experiment: Trypan blue dye exclusion cell viability assay; format: cell-based, human; conditions: for viability of the cells: DU 145, mean ± S.E.
[9] = test system: DU145 prostate cancer xenograft tumors; experiment: DU145 prostate cancer xenograft tumor volume in nude mice; format: in vivo, male BALB/c athymic nude mice
Description: Data are shown as mean±S.E. Two group comparisons were analyzed by unpaired Student's t test. The level of significance for all statistical analyses was set at P<0.05. * P<0.05 compared to saline-treated control.
For in vivo studies, DU145 cancer cells (5×10^6) in 0.2 ml FBS-containing-EMEM medium were injected subcutaneously into the right flank of each male BALB/c athymic nude mice (weight, 20±2 g). After cancer cell injection, the mice were randomly divided into 3 groups, namely the control, low-dose treatment, and high-dose treatment groups. Ten days after tumor cell implantation, each mouse of the low-dose treatment group and high-dose treatment group was injected, respectively, once daily by the intraperitoneal route with 0.084 mg (in 0.1 ml saline) and 8.4 mg (in 0.1 ml saline) recombinant sPDZD2 for 58 days. The width and length of the tumor in millimeters were measured weekly by a caliper, when the implanted tumor became measurable. The tumor volume was calculated according to the following formula: Volume=d^2×D/2 mm^3, where d is the shorter width and D was the longer length.

[10] = test system: MCF-7 cells; experiment: Trypan blue dye exclusion cell viability assay; format: cell-based, human; conditions: for viability of the cells: mean ± S.E.
[11] = test system: MCF-7 cells; experiment: MTS cell proliferation assay
Description: as §1, §2

[12] = test system: 22Rv1 cells; experiment: MTS cell proliferation assay
Description: as §1, §2

[13] = test system: Hep-G2 cells; experiment: Trypan blue dye exclusion cell viability assay; format: cell-based, human; conditions: for viability of the cells: mean ± S.E.
[14] = 10^−9 M, 10^−8 M, 10^−7 M sPDZD2, 24 and 48 hours, P<0.001
[15] = co-incubation 10^−8 M sPDZD2 with 10 μM Z-DEVD-FMK, 48 hours

B1: sPDZD2: secreted 37 kDa cleavage product of human PDZD2, tumor suppressor protein of SEQ ID NO: 2; recombinant form carries N-terminal AGH (protein)
chain: LDKLCSEDYSAGPSAVLFKTELEITPRRSPGPPAGGVSCPEKGGNRACPGGSGPKTSAAETPSSASDTGEAAQDLPFRRSWSVNLDQLLVSAGDQQRLQSVLSSVGSKSTILTLIQEAKAQSENEEDVCFIVLNRKEGSGLGFSVAGGTDVEPKSITVHRVFSQGAASQEGTMNRGDFLLSVNGASLAGLAHGNVLKVLHQAQLHKDALVVIKKGMDQPRPSARQEPPTANGKGLLSRKTIPLEPGIGRSVAVHDALCVEVLKTSAGLGLSLDGGKSSVTGDGPLVIKRVYKGGAAEQAGIIEAGDEILAINGKPLVGLMHFDAWNIMKSVPEGPVQLLIRKHRNSS
decrease in cell proliferation ([1]; 10^−7 M sPDZD2, 24 hours): 23.1%
decrease in cell proliferation ([1]; 10^−7 M sPDZD2, 48 hours): 22.2%
decrease in cell proliferation ([1]; 10^−8 M sPDZD2, 24 hours): 21%
decrease in cell proliferation ([1]; 10^−8 M sPDZD2, 48 hours): 17%
effect on cell proliferation (in words) [1, 14]: concentration-dependent inhibition
effect on the increase in cell proliferation induced by caspase-3 inhibitor treatment [1, 15]: abolished
absorbance at 405 nm (mono- and oligo-nucleosomes in the cell cytoplasm, apoptosis) ([2]; 10^−7 M sPDZD2, 24 hours): Significant (P<0.001) increases
absorbance at 405 nm (mono- and oligo-nucleosomes in the cell cytoplasm, apoptosis) ([2]; sPDZD2, 24 hours): Significant (P<0.001) increases
decrease in cell proliferation ([3]; 10^−7 M sPDZD2, 24 hours): 22.6%
decrease in cell proliferation ([3]; 10^−7 M sPDZD2, 48 hours): 41.6%
decrease in cell proliferation ([3]; 10^−8M sPDZD2, 24 hours): 13.5%
decrease in cell proliferation ([3]; 10^−8 M sPDZD2, 48 hours): 23.8%
effect on cell proliferation (in words) [3, 14]: concentration-dependent inhibition
effect on the increase in cell proliferation induced by caspase-3 inhibitor treatment [3, 15]: abolished
viability of the cells ([4]; 10^−7M sPDZD2, 24 hrs.): 90.86 ± 1.12%
viability of the cells ([4]; 10^−7M sPDZD2, 48 hrs.): 95.45 ± 0.56%
viability of the cells ([4]; 10^−8M sPDZD2, 24 hrs.): 95.03 ± 1.00%
viability of the cells ([4]; 10^−8M sPDZD2, 48 hrs.): 95.49 ± 0.79%
changes in cell viability (in words) ([4]; sPDZD2, 24 and 48 hours): No changes
decrease in cell proliferation ([5]; 10^−7 M sPDZD2, 24 hours): 29.9%
decrease in cell proliferation ([5]; 10^−7 M sPDZD2, 48 hours): 43.5%
decrease in cell proliferation ([5]; 10^−8 M sPDZD2, 24 hours): 25.8%
decrease in cell proliferation ([5]; 10^−8 M sPDZD2, 48 hours): 38.6%
effect on cell proliferation (in words) [5, 14]: concentration-dependent inhibition
effect on the increase in cell proliferation induced by caspase-3 inhibitor treatment [5, 15]: abolished
decrease in cell viability ([6]; 10^−7 M sPDZD2, 24 hours): 26.2%
decrease in cell viability ([6]; 10^−7 M sPDZD2, 48 hours): 18.6%
decrease in cell viability ([6]; 10^−8M sPDZD2, 48 hours): 14.7%
viability of the cells ([7]; 10^−7M sPDZD2, 24 hrs.): 96.04 ± 0.50%
viability of the cells ([7]; 10^−7M sPDZD2, 48 hrs.): 92.65 ± 0.48%
viability of the cells ([7]; 10^−8M sPDZD2, 24 hrs.): 96.01 ± 0.38%
viability of the cells ([7]; 10^−8M sPDZD2, 48 hrs.): 93.02 ± 0.47%
changes in cell viability (in words) ([7]; sPDZD2, 24 and 48 hours): No changes
viability of the cells ([8]; 10^−7M sPDZD2, 24 hrs.): 93.78 ± 1.06%
viability of the cells ([8]; 10^−7M sPDZD2, 48 hrs.): 95.25 ± 0.88%
viability of the cells ([8]; 10^−8M sPDZD2, 24 hrs.): 94.66 ± 0.69%
viability of the cells ([8]; 10^−8M sPDZD2, 48 hrs.): 95.09 ± 1.02%
changes in cell viability (in words) ([8]; DU145, sPDZD2, 24 and 48 hours): No changes
tumor volumes compared with saline-treated group ([9]; high dose 8.4 mg once daily intraperitoneal for 58 days, at 39, 46, 53, 60 and 67 days after tumor cell implantation): significant decreases
tumor volumes compared with saline-treated group ([9]; low dose 0.084 mg once daily intraperitoneal for 58 days): No significant differences
viability of the cells ([10]; 10^−7M sPDZD2, 24 hrs.): 97.34 ± 0.42%
viability of the cells ([10]; 10^−7M sPDZD2, 48 hrs.): 92.07 ± 0.89%
viability of the cells ([10]; 10^−8M sPDZD2, 24 hrs.): 96.69 ± 0.50%
viability of the cells ([10]; 10^−8M sPDZD2, 48 hrs.): 93.86 ± 0.76%
changes in cell viability (in words) ([10]; sPDZD2, 24 and 48 hours): No changes
decrease in cell proliferation ([11]; 10^−7 M sPDZD2 (first-named of '10^−7 M and 10^−7 M'), 24 hours): 14.5%
decrease in cell proliferation ([11]; 10^−7 M sPDZD2 (second-named), 24 hours): 23.2%
decrease in cell proliferation ([11]; 10^−7 M sPDZD2, 48 hours): 21.4%
effect on cell proliferation (in words) [11, 14]: concentration-dependent inhibition
decrease in cell proliferation ([11]; 1108 M sPDZD2, 48 hours): 13.7%
effect on the increase in cell proliferation induced by caspase-3 inhibitor treatment [11, 15]: abolished
decrease in cell proliferation ([12]; 10^−7 M sPDZD2, 24 hours): 15.4%
decrease in cell proliferation ([12]; 10^−7 M sPDZD2, 48 hours): 27.7%
decrease in cell proliferation ([12]; 10^−8 M sPDZD2, 24 hours): 12.7%
effect on cell proliferation (in words) [12, 14]: concentration-dependent inhibition
effect on the increase in cell proliferation induced by caspase-3 inhibitor treatment [12, 15]: abolished
decrease in cell proliferation ([12]; sPDZD2, 48 hours): 21.7%
viability of the cells ([13]; 10^−7M sPDZD2, 24 hrs.): 93.37 ± 0.54%
viability of the cells ([13]; 10^−7M sPDZD2, 48 hrs.): 93.58 ± 0.64%
viability of the cells ([13]; 10^−8M sPDZD2, 24 hrs.): 93.38 ± 0.54%
viability of the cells ([13]; 10^−8M sPDZD2, 48 hrs.): 93.64 ± 0.66%
changes in cell viability (in words) ([13]; sPDZD2, 24 and 48 hours): No changes
